Source: US20210395392A1 (Bristol-Myers Squibb, published 2021)

T1: Human MerTK on hMerTK-expressing cells (human, UniProt Q12866 21-999)
T1 sequence: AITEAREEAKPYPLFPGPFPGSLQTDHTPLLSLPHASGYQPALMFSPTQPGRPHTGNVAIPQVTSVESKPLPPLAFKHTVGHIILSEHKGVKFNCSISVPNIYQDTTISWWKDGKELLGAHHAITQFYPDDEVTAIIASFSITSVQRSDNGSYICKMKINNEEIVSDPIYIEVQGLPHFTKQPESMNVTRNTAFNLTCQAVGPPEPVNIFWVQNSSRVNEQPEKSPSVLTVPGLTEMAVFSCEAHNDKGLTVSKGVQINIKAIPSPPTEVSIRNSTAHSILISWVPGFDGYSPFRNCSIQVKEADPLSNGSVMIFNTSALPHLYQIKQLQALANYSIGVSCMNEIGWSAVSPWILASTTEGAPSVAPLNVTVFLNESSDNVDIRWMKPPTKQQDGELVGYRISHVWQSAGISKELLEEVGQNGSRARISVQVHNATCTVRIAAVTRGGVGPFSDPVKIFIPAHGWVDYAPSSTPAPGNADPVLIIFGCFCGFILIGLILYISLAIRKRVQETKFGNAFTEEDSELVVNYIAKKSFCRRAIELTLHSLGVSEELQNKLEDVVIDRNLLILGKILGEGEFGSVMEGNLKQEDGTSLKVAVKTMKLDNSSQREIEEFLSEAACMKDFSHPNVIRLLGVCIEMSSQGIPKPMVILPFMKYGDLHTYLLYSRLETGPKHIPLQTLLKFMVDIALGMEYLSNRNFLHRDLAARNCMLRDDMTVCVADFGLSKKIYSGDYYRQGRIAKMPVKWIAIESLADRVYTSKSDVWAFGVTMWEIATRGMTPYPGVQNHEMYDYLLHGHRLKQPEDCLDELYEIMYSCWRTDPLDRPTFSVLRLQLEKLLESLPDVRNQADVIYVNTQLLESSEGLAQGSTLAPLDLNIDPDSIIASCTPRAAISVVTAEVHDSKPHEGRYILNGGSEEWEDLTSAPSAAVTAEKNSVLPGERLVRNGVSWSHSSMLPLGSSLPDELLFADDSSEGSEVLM

T2: Recombinant soluble extracellular domain of mouse MerTK (mouse, UniProt Q60805 19-497)
T2 construct: SPR analyte; also called mMerTK
T2 sequence: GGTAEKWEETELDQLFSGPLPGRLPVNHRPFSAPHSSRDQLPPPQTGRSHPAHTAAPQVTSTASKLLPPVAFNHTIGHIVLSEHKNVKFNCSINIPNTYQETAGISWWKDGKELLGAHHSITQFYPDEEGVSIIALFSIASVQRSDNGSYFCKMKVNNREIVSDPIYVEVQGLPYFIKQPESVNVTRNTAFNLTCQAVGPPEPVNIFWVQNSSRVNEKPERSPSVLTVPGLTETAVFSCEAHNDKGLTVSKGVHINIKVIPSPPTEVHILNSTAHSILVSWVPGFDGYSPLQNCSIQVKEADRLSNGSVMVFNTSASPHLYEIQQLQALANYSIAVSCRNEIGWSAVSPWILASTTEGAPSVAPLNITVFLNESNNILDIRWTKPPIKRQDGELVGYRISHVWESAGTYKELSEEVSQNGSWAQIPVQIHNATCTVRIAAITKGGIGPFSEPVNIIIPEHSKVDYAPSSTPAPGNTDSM

T3: Recombinant soluble extracellular domain of cynomolgus monkey MerTK (cynomolgus monkey, UniProt Q12866 21-505 (human entry))
T3 construct: SPR analyte; also called cMerTK; Cynomolgus MerTK
T3 chain: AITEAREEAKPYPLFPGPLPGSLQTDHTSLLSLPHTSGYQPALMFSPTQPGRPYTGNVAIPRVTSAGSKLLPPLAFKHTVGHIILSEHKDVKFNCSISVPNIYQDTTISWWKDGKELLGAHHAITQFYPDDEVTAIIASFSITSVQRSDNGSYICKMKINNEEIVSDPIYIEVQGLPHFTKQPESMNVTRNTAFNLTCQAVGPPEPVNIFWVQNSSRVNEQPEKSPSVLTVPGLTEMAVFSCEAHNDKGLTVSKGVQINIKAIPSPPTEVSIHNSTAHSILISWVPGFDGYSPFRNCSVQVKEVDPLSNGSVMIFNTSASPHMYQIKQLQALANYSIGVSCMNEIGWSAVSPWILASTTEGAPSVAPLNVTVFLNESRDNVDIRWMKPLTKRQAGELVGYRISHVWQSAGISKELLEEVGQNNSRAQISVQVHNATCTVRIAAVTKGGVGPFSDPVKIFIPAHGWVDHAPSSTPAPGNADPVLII

T4: Recombinant soluble extracellular domain of human MerTK (human, UniProt Q12866 21-505)
T4 construct: SPR analyte; also called hMerTK
T4 sequence: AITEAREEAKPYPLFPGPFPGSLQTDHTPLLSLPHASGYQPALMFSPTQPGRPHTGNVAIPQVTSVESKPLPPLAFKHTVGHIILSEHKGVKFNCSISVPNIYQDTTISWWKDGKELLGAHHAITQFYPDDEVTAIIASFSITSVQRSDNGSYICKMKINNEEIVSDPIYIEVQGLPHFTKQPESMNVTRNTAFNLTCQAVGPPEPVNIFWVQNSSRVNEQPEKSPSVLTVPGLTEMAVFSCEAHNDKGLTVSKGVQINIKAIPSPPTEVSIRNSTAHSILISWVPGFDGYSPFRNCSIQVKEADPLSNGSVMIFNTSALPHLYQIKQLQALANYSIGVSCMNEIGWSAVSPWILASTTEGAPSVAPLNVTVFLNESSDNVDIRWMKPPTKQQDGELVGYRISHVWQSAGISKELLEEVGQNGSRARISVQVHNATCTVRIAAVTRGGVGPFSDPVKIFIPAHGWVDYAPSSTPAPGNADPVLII


Assays:
[1] = target: T1, Human MerTK on hMerTK-expressing cells; test: cell-based or functional assay
[2] = target: T2, Recombinant soluble extracellular …; test: SPR, mAb captured, soluble MerTK ECD as analyte, 37 C
Experimental: (§1) MerTK Abs were captured on the chip. Recombinant soluble forms of the extracellular domains of human, cynomolgus monkey, and mouse MerTK polypeptide were injected as analytes at multiple concentrations each. The resulting sensorgrams were double-referenced and fitted to a 1:1 Langmuir binding model with mass transport.

[3] = target: T3, Recombinant soluble extracellular …; test: as above
Experimental: as §1

[4] = target: T4, Recombinant soluble extracellular …; test: as above
Experimental: as §1

Row | Signaling Assay, hMerTK with Gas6, pSTAT1 IC50 (nM) [1] [nM] | Kd [2] [nM] | koff [2] [s⁻¹] | kon [2] [M⁻¹ s⁻¹] | t1/2 [2] [min] | Kd [3] [nM] | koff [3] [s⁻¹] | kon [3] [M⁻¹ s⁻¹] | t1/2 [3] [min] | Kd [4] [nM] | koff [4] [s⁻¹] | kon [4] [M⁻¹ s⁻¹] | t1/2 [4] [min] | Inhibition of Efferocytosis IC50 [1] [nM] | Signaling Assay, hMerTK without Gas6, pSTAT1 IC50 (nM) [1] [nM] | Binder
1 | 8.88 | 47.1 | 0.00249 | 52900 | 4.6 | 42.5 | 0.00137 | 32200 | 8.4 | 50.8 | 0.00134 | 26400 | 8.6 |  |  | Humanized mAb 4M60 (antibody, human IgG1, kappa, V domains shown, Humanized variant of moMAb 4E9, Bin 2) VH: QVQLVQSGSELKKPGASVKVSCKASGNTFTTYGMSWVRQAPGQGLEWMGWINNYSGVSTYADDFKGRFVFSLDTSVSTAYLQISSLKAEDTAVYYCARDYYGSGGWVFDYWGQGTTVTVSS VL: DVVMTQSPLSLPVTLGQPASISCKSSQSLLDSEGKTYLNWLQQRPGQSPRRLMYLVSKLDSGVPDRFSGSGSGTDFTLKISRVEAEDVGVYYCWQGTHFPRTFGGGTKVEIKR
2 | 1.37 | 13.7 | 0.00123 | 89500 | 9.4 | 27 | 0.00151 | 55900 | 7.7 | 24.8 | 0.00146 | 58900 | 7.9 |  |  | Humanized MAb 2L105 (antibody, human IgG1, lambda, V domains shown, Humanized variant of moMAb 2D9, Bin 2) VH: QVTLKESGPVLVKPTETLTLTCTVSGISLSSFAISWIRQPPGKALEWLAVIWTGGGTDYNSALKSRLTISKDTSKSQVVLTMTNMDPVDTATYYCASHWYLDVWGQGTTVTVSS VL: QTVVTQEPSFSVSPGGTVTLTCRSSTGAVSTSNYANWVQQTPGQAPRGLIGGANSRAPGIPDRFSGSILGNKAALTITGAQADDESDYYCALWFSNHWVFGGGTKLTVLG
3 | 1.13 |  |  |  |  | 22.5 | 0.00235 | 108000 | 4.9 | 9 | 0.00117 | 132000 | 9.9 | 0.169 | > 100 | HuMAb 10K11 (antibody, human IgG1, kappa, V domains shown, Human anti-hMerTK mAb, Bin 1) VH: QLQLQESGPGLVKPSETLSLTCAVSGYSISSDYSWGWIRQPPGKGLEWIGSIYHSGNTYFNPSLKSRVTISVDTSKNQFSLKLSSVTAADTAVYYCARDKSYYFGPGSMDVWGQGTTVTVSS VL: AIQLTQSPSSLSASVGDRVTITCRASQGISSALAWYQQKPGKAPKLLIYDASSLESGVPSRFSGSGSGTDFTLTISSLQPEDFATYYCQQFKSYLTFGQGTRLEIKR
